Measurements from patent publication US20180327506A1.

How the values were obtained:
[1] = target: full-length mature cynomolgus EMR2 (residues Q24-N816) with N-terminal aspartic acid/lysine epitope tag, overexpressed on HEK293T cells (cynomolgus monkey (Macaca fascicularis)); assay: flow cytometry on transduced HEK293T; 293 naive MFI ND
[2] = target: full-length mature cynomolgus EMR2 (residues Q24-N816) with N-terminal aspartic acid/lysine epitope tag, overexpressed on HEK293T cells (cynomolgus monkey (Macaca fascicularis))
[3] = target: full-length mature cynomolgus EMR2 (residues Q24-N816) with N-terminal aspartic acid/lysine epitope tag, overexpressed on HEK293T cells (cynomolgus monkey (Macaca fascicularis)); assay: flow cytometry on transduced HEK293T; 293 naive MFI 96.8

full-length mature cynomolgus EMR2 (residues Q24-N816) with N-terminal aspartic acid/lysine epitope tag, overexpressed on HEK293T cells (cynomolgus monkey (Macaca fascicularis)), sequence (chain, as listed by the source): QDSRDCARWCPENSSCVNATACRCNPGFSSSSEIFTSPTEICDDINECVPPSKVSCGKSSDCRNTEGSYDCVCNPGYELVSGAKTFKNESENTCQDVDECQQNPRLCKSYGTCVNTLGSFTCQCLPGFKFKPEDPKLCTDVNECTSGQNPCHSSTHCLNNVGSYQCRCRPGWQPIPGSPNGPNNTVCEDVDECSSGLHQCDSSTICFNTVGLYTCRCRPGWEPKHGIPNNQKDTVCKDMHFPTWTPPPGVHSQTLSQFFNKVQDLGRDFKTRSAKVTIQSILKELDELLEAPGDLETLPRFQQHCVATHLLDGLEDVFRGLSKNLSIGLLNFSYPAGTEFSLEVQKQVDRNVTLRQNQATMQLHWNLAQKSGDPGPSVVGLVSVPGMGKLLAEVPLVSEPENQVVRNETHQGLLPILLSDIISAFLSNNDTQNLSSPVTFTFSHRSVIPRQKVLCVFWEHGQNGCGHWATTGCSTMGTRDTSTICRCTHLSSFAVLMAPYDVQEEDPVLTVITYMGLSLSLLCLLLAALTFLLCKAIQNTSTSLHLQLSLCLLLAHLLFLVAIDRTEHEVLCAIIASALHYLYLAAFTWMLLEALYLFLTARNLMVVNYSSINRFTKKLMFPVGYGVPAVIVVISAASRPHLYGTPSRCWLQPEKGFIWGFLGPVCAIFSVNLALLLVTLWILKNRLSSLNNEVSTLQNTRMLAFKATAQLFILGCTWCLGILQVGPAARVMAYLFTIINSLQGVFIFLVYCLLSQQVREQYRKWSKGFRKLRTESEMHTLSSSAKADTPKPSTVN

B1: SC93.15 (antibody, IgG1, V domains shown)
VH: EVQLQQSGPELVKPGASVKISCKGSGYTFTDYFMNWVKLSHGKSLEWIGEINPNNGGTNYNQKFKGKATLTVDKSSSIAYMELRSLTSEDSAVYYCARPGTNYWGPGTTLTVSS
VL: DIVMTQSHKFMSTSVGDRVSITCKASQNVGTSVAWYQQKPGHSPKLLIYWASTRHTGVPDRFTGSGSGTDFSLTISSVQSEDLTDYFCQQYSSYPLTFGGGTKLEIK
[1]
  FC MFI: 41.2
[2]
  % live, FAB-saporin killing assay: 101%

B2: SC93.216 (antibody, IgG1, V domains shown)
VH: EVQLVESGGGLVKPGGSLKLSCAASGFTFSSYGMSWVRQTPEKRLEWVAAIHSNGDITYYPDTVKGRFTISRDNAKNTLYLQMSSLTSEDTALYYCANLAYWGQGTLVTVSA
VL: EIQMTQSPSSMSASLGDRITITCQATQDIVKNLNWYQQKPGKSPSSLIYYATELAEGVPSRFSGSGSGSDYSLTISNLESEDFADYYCLQFYEFPLTFGAGTKLELK
[3]
  FC MFI: 220
[2]
  % live, FAB-saporin killing assay: 105%
